Test results as given in patent US12686704B2, “Procoagulant peptides and use thereof” (RAMBAM MED-TECH LTD., priority 2021, dated 2026).
Where no end group is shown, it is not given here.

Columns and labels:
[1] = test system: Hemophilic mice (VIII-KO mice); experiment: Mouse-tail bleeding time model in hemophilic mice; assay type: in vivo; settings: subcutaneous 150-375 μg/kg; FIG. 3D
Procedure: FIGS. 3A-3D include vertical bar graphs showing that modified heparanase procoagulant peptides of the invention decrease bleeding in hemophilic mice. Hemophilic mice (VIII-KO mice; C57BL/6 background, strain name B6;129S4-F8tm1Kaz/J) were studied. (3A) Peptides 16 or 16AC were injected subcutaneously at the flank in doses 150, 225, 300, 375 μg/kg. A mouse-tail bleeding time model was performed. The peptides were dissolved in phosphate-buffered saline (PBS). Control (0) group was injected with the vehicle phosphate buffered saline (PBS). (3D) is identical to (3A) with the exception that peptide 16 C […] and peptide 16A […] were also administered in the disclosed doses. In a similar study, the peptides were topically applied on the tail immediately following the incision of the tail at a rate of a drop every 5 seconds (3B). […] Mann-Whitney U test was used. Results represent mean±SD. *p<0.05.
Hemophilic mice (VIII-KO mice; C57BL/6 background, strain name B6;129S4-F8tm1Kaz/J) were studied. Peptides 16 or 16AC were injected sub-cutis at the flank in doses 150, 225, 300, 375 μg/kg. A mouse-tail bleeding time model was performed. The peptides were dissolved in phosphate-buffered saline (PBS). Control (0) group was injected with the vehicle phosphate buffered saline (PBS) (FIGS. 3A and 3D). In a similar study, the peptides were topically applied on the tail immediately following the incision of the tail at a rate of a drop every 5 seconds (FIG. 3B).

[2] = biological target: lipidated TF, factor VIIa, factor X (Homo sapiens, UniProt P13726); experiment: Factor X activation assay of purified proteins (chromogenic substrate); assay type: biochemical; settings: peptides at 5 μg/ml and 10 μg/ml; compared to control; FIG. 1A
Chain of lipidated TF, factor VIIa, factor X (P13726 33-295): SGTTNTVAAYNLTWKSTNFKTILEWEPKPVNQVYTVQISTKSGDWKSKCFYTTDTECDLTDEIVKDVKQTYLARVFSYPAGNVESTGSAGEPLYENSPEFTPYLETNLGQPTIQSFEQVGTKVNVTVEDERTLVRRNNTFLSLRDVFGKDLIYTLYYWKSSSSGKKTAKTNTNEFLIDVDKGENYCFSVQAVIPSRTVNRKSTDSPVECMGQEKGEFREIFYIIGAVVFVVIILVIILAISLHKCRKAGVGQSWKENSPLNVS
Chain of lipidated TF, factor VIIa, factor X (P08709 61-212 partner limits assumed): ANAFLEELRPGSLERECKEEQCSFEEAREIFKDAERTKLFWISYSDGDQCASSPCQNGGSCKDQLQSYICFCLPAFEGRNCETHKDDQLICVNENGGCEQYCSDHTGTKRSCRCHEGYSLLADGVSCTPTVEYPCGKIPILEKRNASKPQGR
Chain of lipidated TF, factor VIIa, factor X (P08709 213-466 partner limits assumed): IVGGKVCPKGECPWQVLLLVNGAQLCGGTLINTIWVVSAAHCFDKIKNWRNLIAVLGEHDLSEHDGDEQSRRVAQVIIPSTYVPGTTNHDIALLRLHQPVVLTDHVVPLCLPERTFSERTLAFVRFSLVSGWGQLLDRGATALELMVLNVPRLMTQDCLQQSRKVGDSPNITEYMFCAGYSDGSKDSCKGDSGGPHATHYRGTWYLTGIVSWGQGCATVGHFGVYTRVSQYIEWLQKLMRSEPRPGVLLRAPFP
Procedure: FIGS. 1A-1C include vertical bar graphs and thromboelastography (TEG) curves, showing that peptide 16 and peptide 16AC increase coagulation. Peptide 16 and 16AC were studied in an assay of purified proteins that included lipidated TF (4 nM), factor VIIa (40 nM), factor X (1.4 μM) and assay buffer. Factor X activated form (Xa) level was studied using a chromogenic substrate (1 mM). […] Bovine factor Xa diluted in the assay buffer was used to generate a standard curve. Without addition of TF (two right columns), no factor Xa was generated. […] (1B) A citrated pooled normal human blood sample (n=3) was left for 4 hours at room temperature in order to expose TF in bloods cells. Following this period, the peptides 16 and 16AC were added (5 μg/ml) along with calcium. […] Representative TEG curves are shown. (1C) The study presented in FIG. 1B was repeated 3 times with different pooled plasma. […] Peptide 16 (non-modified); peptide 16 comprising a C-terminal amid group (16A); peptide 16 comprising an N-terminal acetyl group (16C); and peptide 16 comprising a C-terminal amid group and an N-terminal acetyl group (16AC). In 1B: for control—SP min=11.2; R min=12.8; K min=3.8, Angle deg=52.0; and MA mm=47.9, for Peptide 16—SP min=5.2; R min=6.4; K min=2.8, Angle deg=63.3; and MA mm=50.4, and for Peptide 16AC—SP min=4.7; R min=5.6; K min=2.5, Angle deg=63.1; and MA mm=53.8.
Peptides 16, 16C, 16A and 16AC were studied in an assay of purified proteins that included lipidated TF (0.004 μM), factor VIIa (0.04 μM), factor X (1.4 μM) and assay buffer. Factor X activated form (Xa) level was studied using a chromogenic substrate (1 mM). […] Bovine factor Xa diluted in the assay buffer was used to generate a standard curve. Without addition of TF (two right columns), no factor Xa was generated.

GSKRRKLRVYLHCT-amid (GSKRRKLRVYLHCT-NH2) [Peptide 16A, peptide 16 comprising a C-terminal amid group]
bleeding time reduction, comparison between peptides [1]: significant better effect to reduce the bleeding time compared to peptide 16 and peptide 16C | activation of factor X (factor Xa level) [2]: significantly increased activation of factor X compared to control

acetyl-GSKRRKLRVYLHCT (Ac-GSKRRKLRVYLHCT) [Peptide 16C, peptide 16 comprising an N-terminal acetyl group]
activation of factor X (factor Xa level) [2]: significantly increased activation of factor X compared to control
